# B1: PGGT1 (protein geranylgeranyltransferase type 1; PGGT I; PLP + GGB) (Arabidopsis thaliana) (protein)
# chain 1: SETAVSIDSDRSKSEEEDEEEYSPPVQSSPSANFEKDRHLMYLEMMYELLPYHYQSQEINRLTLAHFIISGLHFLGARDRVDKDVVAKWVLSFQAFPTNRVSLKDGEFYGFFGSRSSQFPIDENGDLKHNGSHLASTYCALAILKVIGHDLSTIDSKSLLISMINLQQDDGSFMPIHIGGETDLRFVYCAAAICYMLDSWSGMDKESAKNYILNCQSYDGGFGLIPGSESHGGATYCAIASLRLMGYIGVDLLSNDSSSSIIDPSLLLNWCLQRQANDGGFQGRTNKPSDTCYAFWIGAVLKLIGGDALIDKMALRKFLMSCQSKYGGFSKFPGQLPDLYHSYYGYTAFSLLEEQGLSPLCPELGLPLLAAPGI
# chain 2: not shown
# notes: alpha/beta heterodimer co-expressed in E. coli Rosetta (pETDuet-1); N-terminal FLAG on PLP, N-terminal 6xHis on GGB (MHHHHHH-SETAVSI from primer), tags kept; Co2+-IMAC purified
# B2: PFT (protein farnesyltransferase; PLP + ERA1) (Arabidopsis thaliana) (protein)
# chain 1: PVVTRLIRLKCVGLRLDRSGLNRRICHGGHGESTRRRVMEELSSLTVSQREQFLVENDVFGIYNYFDASDVSTQKYMMEIQRDKQLDYLMKGLRQLGPQFSSLDANRPWLCYWILHSIALLGETVDDELESNAIDFLGRCQGSEGGYGGGPGQLPHLATTYAAVNALVTLGGDKALSSINREKMSCFLRRMKDTSGGFRMHDMGEMDVRACYTAISVASILNIMDDELTQGLGDYILSCQTYEGGIGGEPGSEAHGGYTYCGLAAMILINEVDRLNLDSLMNWAVHRQGVEMGFQGRTNKLVDGCYTFWQAAPCVLLQRLYSTNDHDVHGSSHISEGTNEEHHAHDEDDLEDSDDDDDSDEDNDEDSVNGHRIHHTSTYINRRMQLVFDSLGLQRYVLLCSKIPDGGFRDKPRKPRDFYHTCYCLSGLSVAQHAWLKDEDTPPLTRDIMGGYSNLLEPVQLLHNIVMDQYNEAIEFFFKAA
# chain 2: not shown
# notes: alpha/beta heterodimer co-expressed in E. coli Rosetta (pETDuet-1); N-terminal FLAG on PLP, N-terminal 6xHis on ERA1 (MHHHHHH-PVVTRLI from primer), tags kept; Co2+-IMAC purified
# Key:
# Test in all cases: radiometric filter prenylation assay, Lineweaver-Burk
# Format in all cases: biochemical, Arabidopsis thaliana
# [1] = substrate: CC(C)=CCC/C(C)=C/CC/C(C)=C/CO[P@@](=O)(O)OP(=O)(O)O; details: co-substrate GFP-BD-CVIL, 50 mM Hepes pH 7.5, 20 mM MgCl2, 5 mM ZnCl2, 5 mM DTT, 0.1% Zwittergent, 30°C, labelled compound
# Source text: (§1) radiometric filter prenylation assay, Lineweaver-Burk on PGGT1 (protein geranylgeranyltransferase type 1; PGGT I; PLP + GGB)
# [2] = substrate: CC(C)=CCC/C(C)=C/CC/C(C)=C/CC/C(C)=C/COP(=O)(O)OP(=O)(O)O; details: co-substrate GFP-BD-CVIL, 50 mM Hepes pH 7.5, 20 mM MgCl2, 5 mM ZnCl2, 5 mM DTT, 0.1% Zwittergent, 30°C, labelled compound
# Source text: as §1
# [3] = substrate: CC(C)=CCC/C(C)=C/CC/C(C)=C/CO[P@@](=O)(O)OP(=O)(O)O; details: co-substrate GFP-BD-CVIQ, 50 mM Hepes pH 7.5, 20 mM MgCl2, 5 mM ZnCl2, 5 mM DTT, 0.1% Zwittergent, 30°C, labelled compound
# Source text: (§2) radiometric filter prenylation assay, Lineweaver-Burk on PFT (protein farnesyltransferase; PLP + ERA1)
# [4] = substrate: CC(C)=CCC/C(C)=C/CC/C(C)=C/CC/C(C)=C/COP(=O)(O)OP(=O)(O)O; details: co-substrate GFP-BD-CVIQ, 50 mM Hepes pH 7.5, 20 mM MgCl2, 5 mM ZnCl2, 5 mM DTT, 0.1% Zwittergent, 30°C, labelled compound
# Source text: as §2
Protein,Km [1],Km [2],Km [3],Km [4]
B1,0.6 ± 0.5 µM,0.8 ± 0.1 µM,–,–
B2,–,–,0.2 ± 0.1 µM,0.7 ± 0.3 µM

# From PMC3017772, “The CaaX specificities of Arabidopsis protein prenyltransferases explain era1 and ggb phenotypes” (BMC Plant Biology, 2010)
